This passage reports percent of Cy3-RNA signal colocalized with Cy5 on σ^70 and percent of initially-stalled transcription complexes retaining σ results from paper doi:10.1101/684738.

In this experiment the target is E. coli RNAP core enzyme (E. coli). Put plainly: single-molecule fluorescence colocalisation.

The substance “Cy5-labeled E. coli σ^70 factor (from UniProt P00579 1-613) (natural protein)” had a percent of Cy3-RNA signal colocalized with Cy5 on σ^70 of 35% and a percent of initially-stalled transcription complexes retaining σ of 75%.
